From patent publication US20090054344A1

Tests used:
[1] = target: human αvβ3 protein (CHEMICON), soluble (human) (UniProt P06756); experiment: cell-based or functional assay
[2] = target: αvβ3 integrin on HUVEC cells (human) (UniProt P06756); experiment: HUVEC attachment to plates coated with E. coli-expressed Tumstatin-44-131 (10 µg/ml); 10 µg/ml antibody; the blocked ligand is Tumstatin-44-131
[3] = target: αvβ3 integrin on C-PAE cells (bovine) (UniProt P80746); experiment: C-PAE attachment to Tum-1-coated plates; the blocked ligand is Tum-1
αvβ3 integrin on C-PAE cells (bovine), sequence (P80746 31-1048): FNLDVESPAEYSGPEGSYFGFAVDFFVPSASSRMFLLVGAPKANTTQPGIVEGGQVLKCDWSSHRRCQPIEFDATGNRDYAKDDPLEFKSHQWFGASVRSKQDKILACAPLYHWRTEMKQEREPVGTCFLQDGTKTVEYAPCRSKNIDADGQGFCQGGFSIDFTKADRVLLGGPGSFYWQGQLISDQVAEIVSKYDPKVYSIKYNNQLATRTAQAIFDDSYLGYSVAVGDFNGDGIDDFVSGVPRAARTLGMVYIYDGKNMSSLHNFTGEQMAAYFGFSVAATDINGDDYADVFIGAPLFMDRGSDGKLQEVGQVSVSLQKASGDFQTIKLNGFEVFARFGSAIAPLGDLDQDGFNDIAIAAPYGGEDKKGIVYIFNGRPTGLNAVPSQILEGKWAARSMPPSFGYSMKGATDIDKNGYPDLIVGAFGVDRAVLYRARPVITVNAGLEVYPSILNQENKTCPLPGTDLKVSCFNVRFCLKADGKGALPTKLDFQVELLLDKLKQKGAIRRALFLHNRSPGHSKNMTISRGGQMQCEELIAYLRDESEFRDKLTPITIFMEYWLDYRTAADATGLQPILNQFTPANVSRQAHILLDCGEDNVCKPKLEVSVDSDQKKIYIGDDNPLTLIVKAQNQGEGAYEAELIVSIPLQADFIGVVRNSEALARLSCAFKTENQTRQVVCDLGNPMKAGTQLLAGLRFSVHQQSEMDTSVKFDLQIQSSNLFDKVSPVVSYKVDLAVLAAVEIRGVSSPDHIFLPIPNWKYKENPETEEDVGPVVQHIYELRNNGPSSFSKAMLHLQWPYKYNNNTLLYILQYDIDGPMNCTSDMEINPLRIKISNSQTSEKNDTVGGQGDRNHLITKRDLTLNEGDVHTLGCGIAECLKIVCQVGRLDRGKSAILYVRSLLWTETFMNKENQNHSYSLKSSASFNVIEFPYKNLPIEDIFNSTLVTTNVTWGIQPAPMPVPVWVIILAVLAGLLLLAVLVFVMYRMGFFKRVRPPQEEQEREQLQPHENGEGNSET

[4] = target: αvβ3 integrin on HUVEC cells (human) (UniProt P06756); experiment: HUVEC attachment to Tumstatin-coated plates; αvβ3 antibody used TOGETHER with β1 antibody; the blocked ligand is Tumstatin
[5] = target: αvβ3 integrin on C-PAE cells (bovine) (UniProt P80746); experiment: C-PAE attachment to Tum-4-coated plates; the blocked ligand is Tum-4
[6] = target: αvβ3 integrin on HUVEC cells (human) (UniProt P06756); experiment: HUVEC adhesion to collagen Type IV-coated wells (10 µg/ml); 10 µg/ml antibody; the blocked ligand is type IV collagen
[7] = target: αvβ3 integrin on C-PAE cells (bovine) (UniProt P80746); experiment: C-PAE attachment to Tum-2-coated plates; the blocked ligand is Tum-2
[8] = target: αvβ3 integrin on HUVEC cells (human) (UniProt P06756); experiment: HUVEC binding to vitronectin-coated plates; 10 µg/ml antibody; the blocked ligand is vitronectin
[9] = target: αvβ3 integrin on HUVEC cells (human) (UniProt P06756); experiment: HUVEC attachment to Tumstatin-coated plates (10 µg/ml); 10 µg/ml antibody, against control IgG; the blocked ligand is Tumstatin
[10] = target: integrin β1 subunit on HUVEC cells (human) (UniProt P05556); experiment: HUVEC attachment to plates coated with E. coli-expressed Tumstatin-44-131 (10 µg/ml); 10 µg/ml antibody; the blocked ligand is Tumstatin-44-131
integrin β1 subunit on HUVEC cells (human), sequence (P05556 21-798): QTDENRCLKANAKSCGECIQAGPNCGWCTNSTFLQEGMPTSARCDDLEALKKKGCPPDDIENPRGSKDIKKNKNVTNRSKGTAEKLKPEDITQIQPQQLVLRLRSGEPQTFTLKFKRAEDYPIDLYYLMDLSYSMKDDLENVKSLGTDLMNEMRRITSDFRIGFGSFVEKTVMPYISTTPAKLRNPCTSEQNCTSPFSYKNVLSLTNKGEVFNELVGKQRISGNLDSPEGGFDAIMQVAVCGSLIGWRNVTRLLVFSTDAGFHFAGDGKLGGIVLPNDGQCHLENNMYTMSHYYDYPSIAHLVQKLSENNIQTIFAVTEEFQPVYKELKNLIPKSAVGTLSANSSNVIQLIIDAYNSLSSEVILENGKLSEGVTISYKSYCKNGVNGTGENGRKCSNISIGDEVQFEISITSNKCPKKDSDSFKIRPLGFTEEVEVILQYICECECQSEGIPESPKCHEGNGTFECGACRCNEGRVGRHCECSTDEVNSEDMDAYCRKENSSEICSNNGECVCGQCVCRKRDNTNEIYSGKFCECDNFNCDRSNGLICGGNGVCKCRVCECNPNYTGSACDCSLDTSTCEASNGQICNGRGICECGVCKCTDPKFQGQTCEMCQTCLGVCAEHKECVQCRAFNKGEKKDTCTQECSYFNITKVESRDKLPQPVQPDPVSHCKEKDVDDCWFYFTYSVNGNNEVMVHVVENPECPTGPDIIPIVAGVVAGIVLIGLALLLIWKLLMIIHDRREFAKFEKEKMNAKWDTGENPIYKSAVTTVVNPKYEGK

[11] = target: integrin β1 subunit on HUVEC cells (human) (UniProt P05556); experiment: HUVEC adhesion to collagen Type IV-coated wells (10 µg/ml); 10 µg/ml antibody; the blocked ligand is type IV collagen
[12] = target: integrin β1 subunit on HUVEC cells (human) (UniProt P05556); experiment: HUVEC adhesion to Arresten-coated wells (10 µg/ml); cells pre-mixed with 10 µg/ml antibody; the blocked ligand is Arresten
[13] = target: integrin β1 subunit on HUVEC cells (human) (UniProt P05556); experiment: HUVEC attachment to Tumstatin-coated plates (10 µg/ml); 10 µg/ml antibody, against control IgG; the blocked ligand is Tumstatin
[14] = target: integrin β1 subunit on HUVEC cells (human) (UniProt P05556); experiment: HUVEC binding to type IV collagen-coated plates; 10 µg/ml antibody, against control IgG; the blocked ligand is type IV collagen

αvβ3 integrin on HUVEC cells (human), sequence (P06756 31-1048, chain 1 of 2): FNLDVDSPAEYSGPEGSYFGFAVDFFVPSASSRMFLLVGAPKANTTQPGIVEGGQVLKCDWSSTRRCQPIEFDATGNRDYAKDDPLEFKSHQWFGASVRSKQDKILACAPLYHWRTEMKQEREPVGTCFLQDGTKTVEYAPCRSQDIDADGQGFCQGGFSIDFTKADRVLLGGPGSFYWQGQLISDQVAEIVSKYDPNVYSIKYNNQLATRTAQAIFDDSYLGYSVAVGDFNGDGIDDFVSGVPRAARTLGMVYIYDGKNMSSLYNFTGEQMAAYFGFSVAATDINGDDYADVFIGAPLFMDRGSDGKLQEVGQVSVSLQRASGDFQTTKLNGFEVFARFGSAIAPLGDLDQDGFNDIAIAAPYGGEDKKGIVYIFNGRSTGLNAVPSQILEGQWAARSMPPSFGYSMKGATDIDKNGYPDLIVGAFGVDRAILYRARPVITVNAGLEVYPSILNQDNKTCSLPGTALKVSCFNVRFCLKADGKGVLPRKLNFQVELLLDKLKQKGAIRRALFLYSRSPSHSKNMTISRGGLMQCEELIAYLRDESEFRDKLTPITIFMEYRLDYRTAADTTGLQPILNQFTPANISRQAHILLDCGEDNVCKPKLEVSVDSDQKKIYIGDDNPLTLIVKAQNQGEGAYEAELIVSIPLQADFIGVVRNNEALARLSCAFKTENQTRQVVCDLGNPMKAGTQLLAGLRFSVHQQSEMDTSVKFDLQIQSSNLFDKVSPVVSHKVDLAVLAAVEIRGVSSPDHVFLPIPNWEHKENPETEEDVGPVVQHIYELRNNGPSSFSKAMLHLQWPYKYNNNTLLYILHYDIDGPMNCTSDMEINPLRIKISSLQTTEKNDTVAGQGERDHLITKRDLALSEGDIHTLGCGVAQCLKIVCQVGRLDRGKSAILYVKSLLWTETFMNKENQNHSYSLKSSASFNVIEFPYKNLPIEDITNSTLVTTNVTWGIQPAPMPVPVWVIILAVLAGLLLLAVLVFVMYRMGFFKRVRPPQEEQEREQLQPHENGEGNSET
αvβ3 integrin on HUVEC cells (human), sequence (P05106 27-788, chain 2 of 2, further chain): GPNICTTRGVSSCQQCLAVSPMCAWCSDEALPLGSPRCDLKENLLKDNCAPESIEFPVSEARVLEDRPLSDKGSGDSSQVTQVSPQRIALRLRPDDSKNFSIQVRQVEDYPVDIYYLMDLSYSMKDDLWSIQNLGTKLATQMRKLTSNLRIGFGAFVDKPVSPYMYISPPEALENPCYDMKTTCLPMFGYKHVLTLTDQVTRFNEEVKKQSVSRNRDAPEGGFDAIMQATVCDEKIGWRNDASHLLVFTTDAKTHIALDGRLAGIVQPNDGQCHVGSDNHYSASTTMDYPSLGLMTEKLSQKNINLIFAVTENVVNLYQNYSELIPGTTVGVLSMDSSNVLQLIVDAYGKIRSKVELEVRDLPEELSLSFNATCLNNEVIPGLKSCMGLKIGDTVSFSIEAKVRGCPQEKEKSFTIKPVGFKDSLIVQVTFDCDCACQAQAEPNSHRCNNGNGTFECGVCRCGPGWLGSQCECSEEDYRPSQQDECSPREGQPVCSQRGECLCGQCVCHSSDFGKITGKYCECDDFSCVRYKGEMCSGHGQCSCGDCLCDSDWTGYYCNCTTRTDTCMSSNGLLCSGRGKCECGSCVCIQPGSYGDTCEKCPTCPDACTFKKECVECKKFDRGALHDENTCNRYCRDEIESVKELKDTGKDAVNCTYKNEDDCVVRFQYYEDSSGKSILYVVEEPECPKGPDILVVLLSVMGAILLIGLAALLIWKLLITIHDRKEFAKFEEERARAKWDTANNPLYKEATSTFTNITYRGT

## Tum-2 (from UniProt Q01955 1427-1558) (ligand)
[1]
  recovery of Tum-2's anti-proliferative effect on C-PAE cells after pre-incubation with αvβ3 protein (methylene blue): 74.1%

## Tum-4 (from UniProt Q01955 1607-1670) (ligand)
[1]
  recovery of the Tum-4-induced anti-proliferative effect on WM-164 melanoma cells after pre-incubation with αvβ3 protein (methylene blue): 76.7%

## monoclonal antibody to αvβ3 integrin (clone LM609, CHEMICON)
[2]
  % inhibition of cell attachment: 47.1%
[3]
  % inhibition of cell attachment: 55.9%
[4]
  % inhibition of cell attachment: 91%
[5]
  % inhibition of cell attachment: 62.6%
[6]
  % inhibition of cell adhesion: 15%
[7]
  % inhibition of cell attachment: 69.8%
[8]
  % inhibition of cell binding: 61%
[9]
  % inhibition of cell attachment: 80%

## mouse monoclonal antibody to the human β1 integrin subunit (clone P4C10)
[10]
  % inhibition of cell attachment: 47.5%
[11]
  % inhibition of cell adhesion: 40%
[12]
  % inhibition of cell adhesion: 70%
[13]
  % inhibition of cell attachment: 54%
[14]
  % inhibition of cell binding: 53%
